What was measured:
[1] = biological target: T1, CD33M, full length human CD33 protein expressed on transfected cells (human, UniProt P20138 18-303); test: flow cytometry on cells transfected with CD33M; apparent Kd, one-site fit
T1 construct: also called full length CD33
Description: (§1) Binding of sdAbs to human CD33 was assessed by flow cytometry. […] MOLM-13 cells were transiently transfected with a plasmid encoding a sequence comprising “CD33M” (SEQ ID NO: 112) or a plasmid encoding a sequence comprising a truncated version, “CD33m” (SEQ ID NO: 113). The sequence encoded by the CD33M plasmid includes the leader sequence, full extracellular domain, transmembrane domain, and cytoplasmic domain. The sequence encoded by the CD33m plasmid includes the leader sequence, the membrane proximal IgC2 domain, and the transmembrane domain. Untransfected HEK 293 cells were used as CD33-negative cells. Each cell type was plated at 30,000 cells/well in FACS buffer (PBS 1% BSA, 0.1% NaN₃ pH 7.4) on a 96-well round-bottom plate. The sdAbs were diluted in FACS buffer in a 3-fold, 11 point serial dilution. The sdAb dilutions were added to the plated cells, and assay plates were incubated for 30 minutes at 4° C. After washing twice in 150 μL of FACS buffer, cells in each well were resuspended in 100 μL of 1:2000 Alexa Fluor 647-conjugated Anti-Human IgG secondary diluted in FACS buffer and incubated at 4° C. for 30 minutes. The cells were washed twice more, then bound antibody was detected by flow cytometry.
(§2) Flow cytometric analysis was performed on an Intellicyte iQue Plus and fluorescence was plotted as median fluorescence intensity. The apparent affinity (Kd, nM) was determined using one site binding non-linear regression in PRISM graph software.

[2] = biological target: T1, CD33M, full length human CD33 protein …; test: flow cytometry on MOLM-13 cells transfected with CD33 (CD33M per Table 3), anti-human IgG Alexa Fluor 647 secondary, median fluorescence
Description: as §1, §2

[3] = biological target: T1, CD33M, full length human CD33 protein …; test: flow cytometry on cells labelled CD33M-HEK-293, anti-human IgG Alexa Fluor 647 secondary, median fluorescence
Description: Binding of sdAbs to human CD33 was assessed by flow cytometry. […] […] The sequence encoded by the CD33M plasmid includes the leader sequence, full extracellular domain, transmembrane domain, and cytoplasmic domain. The sequence encoded by the CD33m plasmid includes the leader sequence, the membrane proximal IgC2 domain, and the transmembrane domain. Untransfected HEK 293 cells were used as CD33-negative cells. Each cell type was plated at 30,000 cells/well in FACS buffer (PBS 1% BSA, 0.1% NaN₃ pH 7.4) on a 96-well round-bottom plate. The sdAbs were diluted in FACS buffer in a 3-fold, 11 point serial dilution. The sdAb dilutions were added to the plated cells, and assay plates were incubated for 30 minutes at 4° C. After washing twice in 150 μL of FACS buffer, cells in each well were resuspended in 100 μL of 1:2000 Alexa Fluor 647-conjugated Anti-Human IgG secondary diluted in FACS buffer and incubated at 4° C. for 30 minutes. The cells were washed twice more, then bound antibody was detected by flow cytometry.
as §2

[4] = biological target: T2, CD33m, truncated human CD33 protein expressed on transfected cells (human, UniProt P20138 140-259); test: flow cytometry on cells transfected with truncated CD33m; apparent Kd, one-site fit
T2 construct: leader and transmembrane domain are not in it; also called truncated CD33
Description: as §1, §2

T1 sequence (P20138 18-303): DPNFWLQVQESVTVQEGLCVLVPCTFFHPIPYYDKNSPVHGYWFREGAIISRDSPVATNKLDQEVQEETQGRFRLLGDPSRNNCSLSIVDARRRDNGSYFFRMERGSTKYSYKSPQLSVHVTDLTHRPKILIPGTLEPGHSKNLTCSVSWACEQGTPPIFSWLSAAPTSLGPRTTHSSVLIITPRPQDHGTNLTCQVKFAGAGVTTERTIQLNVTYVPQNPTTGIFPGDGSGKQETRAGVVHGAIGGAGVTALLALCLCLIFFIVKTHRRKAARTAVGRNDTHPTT
T2 sequence (P20138 140-259 limits assumed): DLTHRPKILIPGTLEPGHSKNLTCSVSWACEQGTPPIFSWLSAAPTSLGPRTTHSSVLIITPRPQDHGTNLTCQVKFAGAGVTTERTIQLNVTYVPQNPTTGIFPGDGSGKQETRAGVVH

Row | Binder | Kd [1] | EC50 (read off the curve) [2] | EC50 (read off the curve) [3] | Kd [4]
1 | 1G3 sdAb (1G3 VHH domain fused to human IgG1 xELL Fc region) (Fc fusion, VHH-Fc; no linker stated) EVQLQQSGGGEVQPGGSLRLSCEASGFTFSSYAMGWFRQAPGKGREWVAAITTSGDTTYYAESVKGRFTISRDNAKNTVYLQMSSLRAEDTAVYYCAAHRGGGVIDYWGQGTQVTVDKTHTCPPCPAPGGPSVFLFPPKPKDTLMISRTPEVTCVVVDVSHEDPEVKFNWYVDGVEVHNAKTKPREEQYNSTYRVVSVLTVLHQDWLNGKEYKCKVSNKALPAPIEKTISKAKGQPREPQVYTLPPSRDELTKNQVSLTCLVKGFYPSDIAVEWESNGQPENNYKTTPPVLDSDGSFFLYSKLTVDKSRWQQGNVFSCSVMHEALHNHYTQKSLSLSPGK | 0.49 nM |  |  | 
2 | hz1G3v3 sdAb (hz1G3v3 VHH domain fused to human IgG1 xELL Fc region) (Fc fusion, VHH-Fc; no linker stated; also called hz1G3v3-IgG1) EVQLVESGGGEVQPGGSLRLSCAASGFTFSSYAMGWFRQAPGKGREWVAAITTSGDTTYYAESVKGRFTISRDNAKNTVYLQMSSLRAEDTAVYYCAAHRGGGVIDYWGQGTLVTVDKTHTCPPCPAPGGPSVFLFPPKPKDTLMISRTPEVTCVVVDVSHEDPEVKFNWYVDGVEVHNAKTKPREEQYNSTYRVVSVLTVLHQDWLNGKEYKCKVSNKALPAPIEKTISKAKGQPREPQVYTLPPSRDELTKNQVSLTCLVKGFYPSDIAVEWESNGQPENNYKTTPPVLDSDGSFFLYSKLTVDKSRWQQGNVFSCSVMHEALHNHYTQKSLSLSPGK | 1.6 nM | ~2 nM |  | 
3 | hzB07v7 sdAb (hzB07v7 VHH domain fused to human IgG1 xELL Fc region) (Fc fusion, VHH-Fc; no linker stated; also called hzB07v7-IgG1) EVQLVESGGGEVQPGGSLRLSCAASGRTISDYVVGWFRQAPGKERAFVAAISRYGTTYYAASVQGRFTISRDNPRNTVYLQVDSLRAEDTAVYYCAALQNDVRNNHSPTSYDYWGQGTLVTVDKTHTCPPCPAPGGPSVFLFPPKPKDTLMISRTPEVTCVVVDVSHEDPEVKFNWYVDGVEVHNAKTKPREEQYNSTYRVVSVLTVLHQDWLNGKEYKCKVSNKALPAPIEKTISKAKGQPREPQVYTLPPSRDELTKNQVSLTCLVKGFYPSDIAVEWESNGQPENNYKTTPPVLDSDGSFFLYSKLTVDKSRWQQGNVFSCSVMHEALHNHYTQKSLSLSPGK | 0.75 nM |  | ~0.7 nM | 
4 | G11 sdAb (G11 VHH domain fused to human IgG1 xELL Fc region) (Fc fusion, VHH-Fc; no linker stated) EVQLVQSGGGSVQVGGSLRLSCAASGSTLNIDHIGWYRQAPGKERELVGVISSGAGPNYADSVKGRFTISRDNAKNTVYLQMNSLKPEDTAVYNCNAWIDYGSGLPQNYWGQGTQVTVDKTHTCPPCPAPGGPSVFLFPPKPKDTLMISRTPEVTCVVVDVSHEDPEVKFNWYVDGVEVHNAKTKPREEQYNSTYRVVSVLTVLHQDWLNGKEYKCKVSNKALPAPIEKTISKAKGQPREPQVYTLPPSRDELTKNQVSLTCLVKGFYPSDIAVEWESNGQPENNYKTTPPVLDSDGSFFLYSKLTVDKSRWQQGNVFSCSVMHEALHNHYTQKSLSLSPGK | 1.1 nM |  |  | 
5 | hzG11v2 sdAb (hzG11v2 VHH domain fused to human IgG1 xELL Fc region) (Fc fusion, VHH-Fc; no linker stated; also called hzG11v2-IgG1) EVQLVESGGGEVQPGGSLRLSCAASGSTLNIDHIGWYRQAPGKERELVGVISSGAGPNYAESVKGRFTISRDNAKNTVYLQMSSLRAEDTAVYYCNAWIDYGSGLPQNYWGQGTLVTVDKTHTCPPCPAPGGPSVFLFPPKPKDTLMISRTPEVTCVVVDVSHEDPEVKFNWYVDGVEVHNAKTKPREEQYNSTYRVVSVLTVLHQDWLNGKEYKCKVSNKALPAPIEKTISKAKGQPREPQVYTLPPSRDELTKNQVSLTCLVKGFYPSDIAVEWESNGQPENNYKTTPPVLDSDGSFFLYSKLTVDKSRWQQGNVFSCSVMHEALHNHYTQKSLSLSPGK | 2.67 nM |  | ~2 nM | 
6 | 1E4 sdAb (1E4 VHH domain fused to human IgG1 xELL Fc region) (Fc fusion, VHH-Fc; no linker between VHH and Fc is stated; also called 1E4-IgG1) QVQLQQSGGGSVQAGGSLRLSCVASGSGFSASLMSWHRQAPGSQRDLVASITRDGRANYVDSVKDRFTISRDNAKNTAYLQMDSLKPEDTAAYYCHAYSFDYPIRSYWGQGTQVTVDKTHTCPPCPAPGGPSVFLFPPKPKDTLMISRTPEVTCVVVDVSHEDPEVKFNWYVDGVEVHNAKTKPREEQYNSTYRVVSVLTVLHQDWLNGKEYKCKVSNKALPAPIEKTISKAKGQPREPQVYTLPPSRDELTKNQVSLTCLVKGFYPSDIAVEWESNGQPENNYKTTPPVLDSDGSFFLYSKLTVDKSRWQQGNVFSCSVMHEALHNHYTQKSLSLSPGK | 0.05 nM | ~0.07 nM |  | 
7 | hz1E4v2 sdAb (hz1E4v2 VHH domain fused to human IgG1 xELL Fc region) (Fc fusion, VHH-Fc; no linker stated; also called hz1E4v2-IgG1) EVQLVESGGGEVQPGGSLRLSCAASGSGFSASLMSWHRQAPGKQRDLVASITRDGRANYVESVKGRFTISRDNAKNTLYLQMSSLRAEDTAVYYCHAYSFDYPIRSYWGQGTLVTVDKTHTCPPCPAPGGPSVFLFPPKPKDTLMISRTPEVTCVVVDVSHEDPEVKFNWYVDGVEVHNAKTKPREEQYNSTYRVVSVLTVLHQDWLNGKEYKCKVSNKALPAPIEKTISKAKGQPREPQVYTLPPSRDELTKNQVSLTCLVKGFYPSDIAVEWESNGQPENNYKTTPPVLDSDGSFFLYSKLTVDKSRWQQGNVFSCSVMHEALHNHYTQKSLSLSPGK | 0.32 nM | ~0.3 nM |  | 
8 | 1H9 sdAb (1H9 VHH domain fused to human IgG1 xELL Fc region) (Fc fusion, VHH-Fc; no linker stated; also called 1H9-IgG1) EVQLQQSGGAVVQPGGSLRLSCAASGSIFSISIMGWYRQAPGKERELVASTTSSGTTNYVDSVKGRFTASRDNAKNTVYLQMNSLKPDDTAIYHCHAYIATTTDRGYRGYWGQGTQVTVDKTHTCPPCPAPGGPSVFLFPPKPKDTLMISRTPEVTCVVVDVSHEDPEVKFNWYVDGVEVHNAKTKPREEQYNSTYRVVSVLTVLHQDWLNGKEYKCKVSNKALPAPIEKTISKAKGQPREPQVYTLPPSRDELTKNQVSLTCLVKGFYPSDIAVEWESNGQPENNYKTTPPVLDSDGSFFLYSKLTVDKSRWQQGNVFSCSVMHEALHNHYTQKSLSLSPGK | 0.14 nM | ~0.2 nM |  | 
9 | hz1H9v2 sdAb (hz1H9v2 VHH domain fused to human IgG1 xELL Fc region) (Fc fusion, VHH-Fc; no linker stated; also called hz1H9v2-IgG1) EVQLVESGGGEVQPGGSLRLSCAASGSIFSISIMGWYRQAPGKERELVASTTSSGTTNYVESVKGRFTISRDNAKNTLYLQMSSLRAEDTAVYYCHAYIATTTDRGYRGYWGQGTLVTVDKTHTCPPCPAPGGPSVFLFPPKPKDTLMISRTPEVTCVVVDVSHEDPEVKFNWYVDGVEVHNAKTKPREEQYNSTYRVVSVLTVLHQDWLNGKEYKCKVSNKALPAPIEKTISKAKGQPREPQVYTLPPSRDELTKNQVSLTCLVKGFYPSDIAVEWESNGQPENNYKTTPPVLDSDGSFFLYSKLTVDKSRWQQGNVFSCSVMHEALHNHYTQKSLSLSPGK | 0.27 nM | ~0.3 nM |  | 
10 | F02 sdAb (F02 VHH domain fused to human IgG1 xELL Fc region) (Fc fusion, VHH-Fc; no linker stated; also called F02-IgG1) QVQLVQSGGGLVQAGGSLRLSCAASGSISSYNVVGWYRQLSGNERGGRTMVAQINAYGDTNYANAVVGRFTISRDDAKNTVYLHMSNLKPEDTGVYYCNGQRMLENYTYRDQSWGQGTQVTVDKTHTCPPCPAPGGPSVFLFPPKPKDTLMISRTPEVTCVVVDVSHEDPEVKFNWYVDGVEVHNAKTKPREEQYNSTYRVVSVLTVLHQDWLNGKEYKCKVSNKALPAPIEKTISKAKGQPREPQVYTLPPSRDELTKNQVSLTCLVKGFYPSDIAVEWESNGQPENNYKTTPPVLDSDGSFFLYSKLTVDKSRWQQGNVFSCSVMHEALHNHYTQKSLSLSPGK | 15.2 nM |  |  | 5.15 nM
11 | 1C7 sdAb (1C7 VHH domain fused to human IgG1 xELL Fc region) (Fc fusion, VHH-Fc; no linker stated; also called 1C7-IgG1) QVQLQQSGGGLVQAGGSLRLSCAASGRTFSGYIMGWFRQVPGKERELVARISGNNLSTEYGGSVKGRFTISRDSAKETMYLQMNSLKPEDTAIYYCAAEYDYSSGDFVYWGQGTQVTVDKTHTCPPCPAPGGPSVFLFPPKPKDTLMISRTPEVTCVVVDVSHEDPEVKFNWYVDGVEVHNAKTKPREEQYNSTYRVVSVLTVLHQDWLNGKEYKCKVSNKALPAPIEKTISKAKGQPREPQVYTLPPSRDELTKNQVSLTCLVKGFYPSDIAVEWESNGQPENNYKTTPPVLDSDGSFFLYSKLTVDKSRWQQGNVFSCSVMHEALHNHYTQKSLSLSPGK | 6.64 nM |  |  | 

From patent US20200347133A1 (INHIBRX, published 2020)
